Positions count from the first letter of the chain named. In names and notes the source's numbering stands.
B1: C52F peptide (peptide)
peptide: NHTTWMEWDREINNYTSLIHSLIEESQNLQEKNEQELLELDKWASLWNWFNIKIK
B2: C52L peptide (peptide)
peptide: B1 peptide with I23F, N33A, L38F

Assays:
Assay in all cases: cell-based or functional assay
[1] = molecular target: envelope glycoprotein of HIV-1 DJ258 (HIV-1 DJ258)
[2] = molecular target: envelope glycoprotein of HIV-1 NL4-3 (HIV-1 NL4-3)
[3] = molecular target: envelope glycoprotein of HIV-1 Case C 7/86 (HIV-1 Case C 7/86)
[4] = molecular target: envelope glycoprotein of HIV-1 94ZW103 (HIV-1 94ZW103)
[5] = molecular target: envelope glycoprotein of HIV-1 UG270 (HIV-1 UG270)
[6] = molecular target: envelope glycoprotein of HIV-1 CM.235 (HIV-1 CM.235)
[7] = molecular target: envelope glycoprotein of HIV-1 BZ162 (HIV-1 BZ162)
[8] = molecular target: envelope glycoprotein of HIV-1 JFRL (HIV-1 JFRL)

| Binder | IC50 (nM), Human PBMC Infectivity Assays [1] | IC50 (nM), Human PBMC Infectivity Assays [2] | IC50 (nM), Human PBMC Infectivity Assays [3] | IC50 (nM), Human PBMC Infectivity Assays [4] | IC50 (nM), Human PBMC Infectivity Assays [5] | IC50 (nM), Human PBMC Infectivity Assays [6] | IC50 (nM), Human PBMC Infectivity Assays [7] | IC50 (nM), Human PBMC Infectivity Assays [8] |
| --- | --- | --- | --- | --- | --- | --- | --- | --- |
| B1 | 9 nM | 23 nM | 49 nM | 4 nM | 68 nM | 11 nM | 2 nM | 5 nM |
| B2 | 11 nM | 20 nM | 17 nM | 3 nM | 61 nM | – | 3 nM | 6 nM |
